Here are results for 7 molecules from patent publication US20260234116A1, “CYTOTOXIC EPOXYKETONE COMPOUNDS, PRECURSORS, COMPOSITIONS, AND METHODS OF USE” (Memorial Sloan-Kettering Cancer Center, priority 2023, published 2026).

Data set [1] addresses T1, EpnF (Streptomyces hygroscopicus, UniProt V5RMU9). The data set is described as follows: Semiquantitative epoxide capture assay (EpnF-catalyzed epoxyketone formation). The format is biochemical. The settings on record: 1 μM EpnF; for EpnF-catalyzed conversion to epoxyketone (epoxide capture): 240 μM β-ketoacid substrate (FIG. 2). The procedure:
Recombinant EpnF was diluted to 1 μM in 180 μL EpnF Buffer in an 1.5 mL Eppendorf tube. The β-ketoacid 11 was added at various concentrations to a total reaction volume of 200 μL. The mixture was incubated in a heated shaker at 37° C. and 225 rpm for 1 h. The reaction mixture (30 μL×3 technical replicates) was transferred to a white, opaque 96-well plate (PerkinElmer, OptiPlate-96). Each plate also contained 30 μL×3 technical replicates of EpnF Buffer as a negative control. To each well, 15 μL of 125 mM nicotinamide in EpnF Buffer was added and mixed by pipetting. The plate was sealed with an adhesive foil cover (VWR Adhesive Foil for Microplates) and heated in an oven at 80° C. for 1 h. The plate was cooled to rt and 25 μL of 15% (v/v) acetophenone in EtOH and 25 μL of 1 M potassium hydroxide in EtOH were added to each well, then mixed by pipetting. The plate was cooled on ice for 10 min, then 125 μL formic acid was added to each well. The plate was resealed and heated in an oven at 100° C. for 5 min. The plate was cooled on ice for 5-10 min, then analyzed (λex 370 nm, λem 430 nm) on a fluorescence plate reader (Molecular Devices Spectramax M3).
We adapted a reported epoxide capture assay [Nelis, H. J. C. F.; Sinsheimer, J. E. (1981) A sensitive fluorimetric procedure for the determination of aliphatic epoxides under physiological conditions. Anal. Biochem. 115, 151-157.] to 96-well plate format to detect formation of the epoxyketone products semiquantitatively. Each β-ketoacid substrate 11 was incubated with recombinant, purified EpnF (1 h), then reacted with nicotinamide and acetophenone (1 h) to form a fluorescent 1,6-naphthyridinone 24. The fluorescent signals were normalized to that resulting from the known substrate β-ketoacid 11n as a positive control [Zabala, D.; Cartwright, J. W.; Roberts, D. M.; Law, B. J. C.; Song, L.; Samborskyy, M.; Leadlay, P. F.; Micklefield, J.; Challis, G. L. (2016) A flavin-dependent decarboxylase-dehydrogenase-monooxygenase assembles the warhead of α,β-epoxyketone proteasome inhibitors. J. Am. Chem. Soc. 138, 4342-4345.].

Data set [2] deals with T1, EpnF. Nature of the data set: Enzyme kinetic analysis by SPE-MS/MS assay. The format is biochemical. Particulars: for efficiency of EpnF-catalyzed conversion compared to parent substrate 11a (in words): quantitative SPE-MS/MS assay. Here is the method: (§1) SPE-MS/MS analyses were carried out on an Agilent RapidFire 365 High-Throughput Mass Spectrometry System with 6495 triple quadrupole mass spectrometer. Determination of initial velocity: EpnF stock at 100 μM was diluted 10-fold in EpnF Buffer to a 10 μM working solution, which was further diluted to 8 concentrations (10-0.005 μM) in EpnF Buffer (intermediate volume 1350 μL, concentrations calculated for 1500 μL theoretical final volume corresponding to addition of substrate solutions below). The 8 EpnF enzyme dilutions were aliquoted (90 μL) into the corresponding 8 tubes of PCR tube strips (12 strips, one per time point; Thermo Scientific, AB-2000). The β-ketoacid 11 (20 mM in EtOH) was diluted to 10 μM in EpnF Buffer, then 10 μL of this solution was added to each of the tubes (1 μM final concentration, 100 μL final volume) to initiate the reaction. Samples were incubated in a heated shaker at 37° C. and 225 rpm for up to 120 min, and one tube strip was removed at each time point. Each tube was quenched with 5% formic acid in EpnF Buffer (100 μL), pipetted vigorously, and flash frozen on dry ice. Samples were thawed then centrifuged to precipitate protein and transferred to a conical-bottom 96-well plate (Thermo Scientific/Nunc, 249944) for SPE-MS/MS analysis. Measurement of Km and Vmax: Using the data from the initial velocity experiments above, an appropriate EpnF enzyme concentration was selected for each β-ketoacid 11 at which the rate of conversion to the epoxyketone 12 remained linear at 10 min (0.50 μM for 11n and 0.05 μM for all other substrates). Each substrate (20 mM in EtOH) was diluted to 1 mM in EpnF Buffer, then diluted to 8 concentrations (100-0.5 μM) in EpnF Buffer (intermediate volume 1350 μL, concentrations calculated for 1500 μL theoretical volume corresponding to addition of enzyme solutions below). The 8 substrate dilutions were aliquoted (90 μL) into the corresponding 8 tubes of PCR tube strips (12 strips, one per time point; Thermo Scientific, AB-2000). The EpnF enzyme stock solution was diluted in EpnF Buffer to the appropriate concentration for each substrate, then 10 μL of this solution was added to each of the tubes (100 μL final volume) to initiate the reaction. For the 0-min time point, 5% formic acid in EpnF Buffer was added to the β-ketoacid substrate before addition of the enzyme. Samples were incubated in a heated shaker at 37° C. and 225 rpm for up to 10 min, and one tube strip was removed at each time point. Each tube was quenched by addition of 5% formic acid in EpnF Buffer (100 μL), pipetted vigorously, and flash frozen on dry ice. Samples were thawed then centrifuged to precipitate proteins and the supernatants were transferred to a conical-bottom 96-well plate (Thermo Scientific/Nunc, 249944) for SPE-MS/MS analysis. Km and Vmax values for each substrate were calculated by Michaelis-Menten analysis. To obtain a quantitative assessment of EpnF substrate specificity, we developed a kinetic assay (10 min) using SPE-MS/MS (solid-phase extraction/triple quadrupole mass spectrometry; Agilent RapidFire 365 with 6495 MS) to enable direct detection of both substrates and products.

For data set [3] the following is noted: during isolation and characterization; cited from earlier work.
Substrate in data set [4]: CC(C)C[C@H](NC(=O)[C@H](CO)NC(=O)c1ccccc1)C(=O)C(C)(C)C(=O)O
The data set is described as follows: Enzyme kinetic analysis by SPE-MS/MS assay. The format is biochemical. Particulars: other: 0.05 μM EpnF; 37.0 °C. Here is the method:
as §1

Substrate in data set [5]: C=C(C)C[C@H](NC(=O)[C@H](CO)NC(=O)CCCCC(C)C)C(=O)C(C)(C)C(=O)O
Nature of the data set: Enzyme kinetic analysis by SPE-MS/MS assay. Type of data set: biochemical. The settings on record: other: 0.05 μM EpnF; 37.0 °C. The procedure:
as §1

Substrate in data set [6]: CC(C)CCCCC(=O)N[C@@H](CO)C(=O)N[C@@H](CC(C)C)C(=O)C(C)(C)C(=O)O
Nature of the data set: Enzyme kinetic analysis by SPE-MS/MS assay. Type of data set: biochemical. The settings on record: other: 0.05 μM EpnF; 37.0 °C. Here is the method: as §1

Substrate in data set [7]: CCCC(=O)N[C@@H](CO)C(=O)N[C@@H](CC(C)C)C(=O)C(C)(C)C(=O)O
The data set is described as follows: Enzyme kinetic analysis by SPE-MS/MS assay. The format is biochemical. Particulars: other: 0.50 μM EpnF; 37.0 °C. Here is the method: as §1

Substrate in data set [8]: CC(C)CCCCC(=O)N[C@@H](C)C(=O)N[C@@H](CC(C)C)C(=O)C(C)(C)C(=O)O
Nature of the data set: Enzyme kinetic analysis by SPE-MS/MS assay. The format is biochemical. The settings on record: other: 0.05 μM EpnF; 37.0 °C. The procedure:
as §1

Substrate in data set [9]: CC(C)CCCCC(=O)N[C@H](C(=O)N[C@@H](CC(C)C)C(=O)C(C)(C)C(=O)O)C(C)O
Nature of the data set: Enzyme kinetic analysis by SPE-MS/MS assay. Type of data set: biochemical. Particulars: other: 0.05 μM EpnF; 37.0 °C. The procedure: as §1

Usually Km stands for the substrate concentration at which the rate is half of its maximum. Broadly, the kcat is the maximal rate divided by the concentration of active sites. A word on the kcat/Km: it is the second-order rate constant that governs catalysis at low substrate concentration.

On to `C=C(C)C[C@H](NC(=O)[C@H](CO)NC(=O)CCCCC(C)C)C(=O)C(C)(C)C(=O)O` [Compound 11b, (S)-4-((S)-3-Hydroxy-2-(6-methylheptanamido)propanamido)-2,2,6-trimethyl-3-oxohept-6-enoic acid], for which the “EpnF-catalyzed formation of epoxyketone (epoxide capture)” value in data set [1] (250 μM β-ketoacid substrate, 1 h, positive control 11n (FIG. 1)) is recorded as “lower levels”. For the same molecule, in data set [2] (relative to 11n), the “converted more efficiently than 11n” value is “≈ 20 fold”.

For `CC(C)CCCCC(=O)N[C@H](C(=O)N[C@@H](CC(C)C)C(=O)C(C)(C)C(=O)O)C(C)C` [Compound 11k, (4S)-2,2,6-Trimethyl-4-[(2S)-3-methyl-2-(6-methylheptanamido)butanamido]-3-oxoheptanoic acid], the “EpnF-catalyzed conversion to epoxyketone (epoxide capture)” value (“EpnF-catalyzed conversion to epoxyketone” for short) in [1] was “tolerated to a lesser degree”. The “efficiency of EpnF-catalyzed conversion compared to parent substrate 11a (in words)” value in data set [2] is recorded as “low conversion”.

`CC(C)CCCCC(=O)N[C@H](C(=O)N[C@@H](CC(C)C)C(=O)C(C)(C)C(=O)O)C(C)O` (stereo partly drawn) [Compound 11l, (4S)-4-[(2S)-3-Hydroxy-2-(6-methylheptanamido)butanamido]-2,2,6-trimethyl-3-oxoheptanoic acid]: the “EpnF-catalyzed conversion to epoxyketone” value in [1] was “tolerated”. Moreover, in [2], the “efficiency of EpnF-catalyzed conversion compared to parent substrate 11a (in words)” value is recorded as “slightly lower efficiency”.

Regarding `CCCC(=O)N[C@@H](CO)C(=O)N[C@@H](CC(C)C)C(=O)C(C)(C)C(=O)O` [Compound 11n, (4S)-4-((S)-2-Butyramido-3-hydroxypropanamido)-2,2,6-trimethyl-3-oxoheptanoic acid], in data set [3], the spontaneous decarboxylation entry was “can undergo spontaneous decarboxylation”. In addition, the “EpnF-catalyzed conversion to epoxyketone” value in data set [1] is “permitted”.

For `CC(C)C[C@H](NC(=O)[C@H](CO)NC(=O)c1ccccc1)C(=O)C(C)(C)C(=O)O` [Compound 11o, (4S)-4-[(2S)-3-Hydroxy-2-(phenylformamido)propanamido]-2,2,6-trimethyl-3-oxoheptanoic acid], in data set [1], the “EpnF-catalyzed conversion to epoxyketone” value is reported as “also tolerated”. Also, the “efficiency of EpnF-catalyzed conversion compared to parent substrate 11a (in words)” value in data set [2] was “slightly lower efficiency”.

As for `CCCCCCCCCC(=O)N[C@@H](CO)C(=O)N[C@@H](CC(C)C)C(=O)C(C)(C)C(=O)O` [Compound 11q, (4S)-4-[(2S)-2-Decanamido-3-hydroxypropanamido]-2,2,6-trimethyl-3-oxoheptanoic acid], the “EpnF-catalyzed conversion to epoxyketone” value in data set [1] is recorded as “permitted”. Moreover, the “solubility (kinetic parameters could not be determined)” value in data set [2] (EpnF Buffer) was “solubility limitations”.

B1: EpnF (Streptomyces hygroscopicus) (protein)
chain: MSDSKSVNLFHRHGVPSFLEGIYQGRFEWDMISNFVAQDSADEKAGDAAVERLTDILRNRVNPTAVDATRELPEGLLEELRRTGFLNLQDSPDIGGLGLSSYNTFRVVQAAASWSVPVALVLGIQTAVGSGTYLRALPPGELHSYVEQRLLDGIISGSADTEPAGASNSARRTRAVPTDDGEAFLLTGEKIHIGNGPIADIVTVSAMLDEDGQDRPRLFFVETSDPGFSIRSRHEFMGVKGFPNAALVLDGVRVPRERMIVEVDPDTEVRITAELTMAVVRGRLHLITAPSLAISKLCLEWSRNFVNRRTIDGRPLGAREEIQHMVSSTMADVFAIQALAEWSLLPADQPDLGLNVAFEQNVTKAISAEICWRAADRTMDLLAGEGFETAPSKARRGAPALPLERFYRDARNLRISGGVSFLLQFWAARMSQFTYYGPDHAGQSAALSQDGGQQPCTDGLDPLNADHLRFAAAETRRLGAACQKFAADHPAPGLYEHQHRLIAFSRIADEILTMSVVLAKAARLHHEGRTEAQDLAAIYCAHARDRLAALWRQAEPVTAGPDHAAVSDAWLSGDDTYASLITGVITDVPPTADTHPGKR
With B1, the Km in [4] worked out at 6.13 µM; in data set [5] it was 17.3 µM; in data set [6], 11.6 µM; in data set [7], 23.1 µM; in data set [8], 4.70 µM; in [9] it was 13.3 µM. The kcat in [4] was determined as 0.0125 s⁻¹; in [5] it was 0.114 s⁻¹; in data set [6], 0.071 s⁻¹; in data set [7], 0.0067 s⁻¹; in [8], 0.025 s⁻¹; in data set [9], 0.016 s⁻¹. The kcat/Km was 1880 M⁻¹ s⁻¹ in data set [4]; 6580 M⁻¹ s⁻¹ in data set [5]; 6120 M⁻¹ s⁻¹ in [6]; 290 M⁻¹ s⁻¹ in data set [7]; 5320 M⁻¹ s⁻¹ in data set [8]; 1200 M⁻¹ s⁻¹ in [9].
